Measured values from article PMC5691136, “The role of CXCR3/LRP1 cross-talk in the invasion of primary brain tumors” (Nature Communications, 2017).

Target: CXCR3-A (human CXC chemokine receptor CXCR3, isoform A), stably expressed in U87 cells (human) (UniProt P49682)
Assay: plasmon waveguide resonance (PWR); membrane fragments of U87-CXCR3-A or HEK-CXCR3-A cells captured on the polylysine-treated silica sensor; ligand added incrementally in PBS, 22 °C; shifts of the resonance minimum fitted with a hyperbolic single-site function

Chain of CXCR3-A (human CXC chemokine receptor CXCR3, isoform A), stably expressed in U87 cells (human) (P49682 whole entry, the tested form may be a part, canonical isoform): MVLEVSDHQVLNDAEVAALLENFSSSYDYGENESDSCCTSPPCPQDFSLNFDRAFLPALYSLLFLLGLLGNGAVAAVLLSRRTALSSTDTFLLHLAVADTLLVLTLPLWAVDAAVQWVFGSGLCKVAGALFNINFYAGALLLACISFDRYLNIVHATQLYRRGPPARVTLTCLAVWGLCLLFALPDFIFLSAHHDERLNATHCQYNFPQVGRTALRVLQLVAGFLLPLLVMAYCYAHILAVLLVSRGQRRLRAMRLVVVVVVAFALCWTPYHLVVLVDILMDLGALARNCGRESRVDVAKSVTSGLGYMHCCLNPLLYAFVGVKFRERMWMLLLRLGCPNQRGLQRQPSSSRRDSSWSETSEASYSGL

PS372424 (CXCR3 agonist) (peptide)
Kd: 36 nM
